Source: patent CN109081868A (INST PASTEUR SHANGHAI CAS, dated 2018)

Target: T1, ZIKV E80 (寨卡病毒包膜蛋白N端80%区域, 氨基酸1-409) (Zika virus (2015 South American …, UniProt A0A024B7W1 291-699))
T1 construct: also called ZKE80
Test: BLI (Octet-Red), biotinylated ZIKV E80 on streptavidin sensor, antibody at 40-0.064 ug/ml in solution

T1 sequence (A0A024B7W1 291-699): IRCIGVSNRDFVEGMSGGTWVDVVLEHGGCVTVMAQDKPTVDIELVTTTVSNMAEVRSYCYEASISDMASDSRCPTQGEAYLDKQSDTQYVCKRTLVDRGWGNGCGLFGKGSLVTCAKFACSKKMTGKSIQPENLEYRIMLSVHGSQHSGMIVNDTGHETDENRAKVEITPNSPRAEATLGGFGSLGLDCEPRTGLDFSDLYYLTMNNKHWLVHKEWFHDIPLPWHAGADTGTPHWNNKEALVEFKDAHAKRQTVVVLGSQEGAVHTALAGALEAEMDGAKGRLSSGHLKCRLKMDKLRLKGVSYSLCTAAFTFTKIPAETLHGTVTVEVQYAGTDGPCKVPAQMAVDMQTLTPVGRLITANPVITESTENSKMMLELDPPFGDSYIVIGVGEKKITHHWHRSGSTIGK

B1: 单克隆抗体5F8 (antibody, V domains shown)
VH: QVQLQQSGAELVRPGVSAKISCKASGYIFTDYAMHWVKQSHAKSLEWIGLISTKSGAANYNQKFTDKATLTVDKSSSTAYLELARLTSEDSAIYYCARNDYLAWLPYWGQGTLVTVSA
VL: DVLMTQTPLSLPVSLGDHASISCRSSQSIVHSNGNTYLEWYLQKPGQSPKLLIYKVSYRFSGVPDRFSGSGSGTDFTLKISRVEAEDLGVYYCFQGSHVPWTFGGGTKLEIK
notes: also called 单抗5F8; 重组5F8
- Kd: 15 nM
